In publication PMC3433420:
Each block holds one binder with its values, some of them ahead of it.

Legend:
[1] = target: phosphopeptides corresponding to ErbB2 intracellular tyrosine sites (human); test: fluorescence polarisation; saturation binding in solution; rhodamine-labeled peptide fixed at 10 nM, protein titrated 0.002-10 µM (twelve two-fold dilutions); 20 minutes at room temperature in the dark; assay buffer 20 mM HEPES, 100 mM KCl, 0.1% Tween-20, 5 mM DTT, pH 7.8; apparent KD; assay detection threshold of 20 µM
[2] = target: phosphopeptides corresponding to ErbB4 intracellular tyrosine sites (human); test: as above
[3] = target: phosphopeptides corresponding to ErbB1 intracellular tyrosine sites (human); test: as above
[4] = target: ErbB1 pY801 phosphopeptide, rhodamine-labelled (human); test: fluorescence polarisation; saturation binding in solution: rhodamine peptide fixed at 10 nM, protein titrated 0.002-10 uM, 20 min at room temperature; assay buffer 20 mM HEPES, 100 mM KCl, 0.1% Tween-20, 5 mM DTT, pH 7.8; apparent KD
[5] = target: MET pY1313 phosphopeptide, rhodamine-labelled; test: as above
[6] = target: ErbB4 pY906 phosphopeptide, rhodamine-labelled (human); test: as above

Kd [1]: 1000 nM | Kd [2]: 1000 nM | Kd [3]: 1000 nM
B1: GRAP2 SH2 domain (domain or fragment)
chain: WFHEGLSRHQAENLLMGKEVGFFIIRASQSSPGDFSISVRHEDDVQHFKVMRDNKGNYFLWTEKFPSLNKLVDYYRTNSISRQKQIFLRDRT

Kd [4]: 5350 nM | Kd [5]: 5890 nM
B2: TNS3 SH2 domain (domain or fragment)
chain: WYKADISREQAIAMLKDKEPGSFIVRDSHSFRGAYGLAMKVATPPPSVLQLNKKAGDLANELVRHFLIECTPKGVRLKGCSNEPYFGSLTALVCQHSITPLALPCKLLIPE

Kd [6]: 540 nM
B3: SHC3 SH2 domain (domain or fragment)
chain: WYQGEMSRKEAEGLLEKDGDFLVRKSTTNPGSFVLTGMHNGQAKHLLLVDPEGTIRTKDRVFDSISHLINHHLESSLPIVSAGSELCLQQPV

Kd [5]: 17000 nM
B4: VAV2 SH2 domain (domain or fragment)
chain: WFAGNMERQQTDNLLKSHASGTYLIRERPAEAERFAISIKFNDEVKHIKVVEKDNWIHITEAKKFDSLLELVEYYQCHSLKESFKQLDTTLKYPY
